Assay results taken from publication PMC11901735.

Tests used:
[1] = target: GLP-1R of mouse pancreatic β-cells (mouse (endogenous in ddY mouse pancreas)) (UniProt O35659)
[2] = target: Recombinant human GLP-1R protein (human) (UniProt P43220); assay: SPR; Biacore T200; recombinant human GLP-1R (0.5 μM) immobilized on a CM5 sensor chip; peptides injected at four-fold serial dilutions (0, 0.1-100 nM); n = 3; 1:1 interaction model
Recombinant human GLP-1R protein (human), sequence (P43220 24-463): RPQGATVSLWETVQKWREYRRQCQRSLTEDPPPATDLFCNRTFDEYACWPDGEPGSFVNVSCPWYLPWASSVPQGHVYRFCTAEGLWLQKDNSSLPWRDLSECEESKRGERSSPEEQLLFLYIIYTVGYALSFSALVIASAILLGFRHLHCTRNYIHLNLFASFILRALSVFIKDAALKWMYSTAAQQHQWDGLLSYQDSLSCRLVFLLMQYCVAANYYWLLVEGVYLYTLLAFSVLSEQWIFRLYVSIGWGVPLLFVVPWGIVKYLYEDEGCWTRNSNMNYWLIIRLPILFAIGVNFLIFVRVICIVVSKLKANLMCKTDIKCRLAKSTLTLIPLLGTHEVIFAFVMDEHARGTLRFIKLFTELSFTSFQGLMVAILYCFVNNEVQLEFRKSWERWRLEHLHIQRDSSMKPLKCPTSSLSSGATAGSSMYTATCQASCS

GLP-1R of mouse pancreatic β-cells (mouse (endogenous in ddY mouse pancreas)), sequence (O35659 22-463): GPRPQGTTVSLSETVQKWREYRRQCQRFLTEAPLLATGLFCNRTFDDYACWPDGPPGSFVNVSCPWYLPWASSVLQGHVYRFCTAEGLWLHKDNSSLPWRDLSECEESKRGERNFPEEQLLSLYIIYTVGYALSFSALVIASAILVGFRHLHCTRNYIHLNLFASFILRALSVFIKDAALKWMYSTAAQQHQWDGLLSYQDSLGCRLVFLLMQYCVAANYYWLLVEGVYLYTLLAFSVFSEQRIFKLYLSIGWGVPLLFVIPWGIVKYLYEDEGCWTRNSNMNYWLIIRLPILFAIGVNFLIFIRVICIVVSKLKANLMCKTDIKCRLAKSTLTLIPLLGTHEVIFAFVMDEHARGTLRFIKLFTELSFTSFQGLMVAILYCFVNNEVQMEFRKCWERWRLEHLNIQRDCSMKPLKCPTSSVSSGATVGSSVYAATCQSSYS

Substance: I-Ex-4, Ex-4-C40 labeled with IPM at the additional C-terminal Cys (peptide)
- radioactivity in the pancreas 5-120 min after i.v. administration of [^125I]I-Ex-4 to mice (highest at 60 min) (% injected dose per gram tissue) [1]: 11.3
- Kd [2]: 28.1 nM
